Where a chain is given by its changes, count along the chain named.
Biological target: T1, HLA-A2/MAGE-A4 complex, recombinant (HLA-A*02:01 extracellular domain, human b2m, MAGE-A4 peptide 230-239 …) (human, UniProt P04439 25-299 at identity 0.94); P61769 21-119)
T1 construct: also called MAGE-A4 pMHC; MAGE-A4/HLA-A2 complex
Test: SPR, monovalent

B1: M1109 (bispecific antibody, V domains shown)
VH: EVQLLESGGGSVQPGGSLRLSCTVSGFSLSNYAMSWVRQAPGKGLEWIGIVSSGGTTYYASWAKGRFTISKDTSKNTVYLQMNSLRAEDTASYYCAKDLYYAPTTYSAFNLWGQGTSVTVSS
VL: SYELTQPPSVSVSPGQTASITCTADTLSRSYASWYQQKPGQSPVLVIYRDTSRPSGIPERFSGSNSGNTATLTISGTQAMDEADYYCATRPSSGSNFQLFGGGTKLTVL
notes: Variant of humanized M0763; tested in SPR as anti-CD3 Fab x anti-MAGE-A4 scFv bispecific
Kd: 11.7 nM

B2: M1127 (bispecific antibody, V domains shown)
VH: B1 VH with A102G
VL: B1 VL with F97A
notes: as for B1
Kd: 0.89 nM

B3: M1134 (bispecific antibody, V domains shown)
VH: B1 VH with G54A, A102G
VL: B1 VL
notes: as for B1
Kd: 4.2 nM

B4: M1122 (bispecific antibody, V domains shown)
VH: B1 VH with A102G
VL: B1 VL with P91A
notes: as for B1
Kd: 0.75 nM

B5: M1111 (bispecific antibody, V domains shown)
VH: B1 VH with A102G, T104A
VL: B1 VL
notes: as for B1
Kd: 0.65 nM

B6: M1120 (bispecific antibody, V domains shown)
VH: B1 VH with A102G
VL: B1 VL with T89A
notes: as for B1
Kd: 1.21 nM

B7: M1130 (bispecific antibody, V domains shown)
VH: B1 VH with I50A, A102G
VL: B1 VL
notes: as for B1
Kd: 2.2 nM

B8: M1112 (bispecific antibody, V domains shown)
VH: B1 VH with A102G, T105A
VL: B1 VL
notes: as for B1
Kd: 35.9 nM

B9: M1125 (bispecific antibody, V domains shown)
VH: B1 VH with A102G
VL: B1 VL with S95A
notes: as for B1
Kd: 0.89 nM

B10: M1136 (bispecific antibody, V domains shown)
VH: B1 VH with T56A, A102G
VL: B1 VL
notes: as for B1
Kd: 2.7 nM

B11: M1129 (bispecific antibody, V domains shown)
VH: B1 VH with A102G
VL: B1 VL with L99A
notes: as for B1
Kd: 0.46 nM

B12: M1138 (bispecific antibody, V domains shown)
VH: B1 VH with Y58A, A102G
VL: B1 VL
notes: as for B1
Kd: 3.1 nM

B13: M1110 (bispecific antibody, V domains shown)
VH: B1 VH with A102G, P103A
VL: B1 VL
notes: as for B1
Kd: 9.65 nM

B14: M1115 (bispecific antibody, V domains shown)
VH: B1 VH with A102G, A108S
VL: B1 VL
notes: as for B1
Kd: 0.48 nM

B15: M1140 (bispecific antibody, V domains shown)
VH: B1 VH with A60S, A102G
VL: B1 VL
notes: as for B1
Kd: 2.8 nM

B16: M1114 (bispecific antibody, V domains shown)
VH: B1 VH with A102G, S107A
VL: B1 VL
notes: as for B1
Kd: 1.18 nM

B17: M1117 (bispecific antibody, V domains shown)
VH: B1 VH with A102G, N110A
VL: B1 VL
notes: as for B1
Kd: 4.2 nM

B18: M1132 (bispecific antibody, V domains shown)
VH: B1 VH with S52A, A102G
VL: B1 VL
notes: as for B1
Kd: 4.1 nM

B19: M1139 (bispecific antibody, V domains shown)
VH: B1 VH with Y59A, A102G
VL: B1 VL
notes: as for B1
Kd: 2.1 nM

B20: M1131 (bispecific antibody, V domains shown)
VH: B1 VH with V51A, A102G
VL: B1 VL
notes: as for B1
Kd: 3.2 nM

B21: M1142 (bispecific antibody, V domains shown)
VH: B1 VH with W62A, A102G
VL: B1 VL
notes: as for B1
Kd: 2.9 nM

B22: M1169 (bispecific antibody, V domains shown)
VH: B1 VH with A102G, F109A
VL: B1 VL with Q98V
notes: as for B1
Kd: 3.2 nM

B23: M1145 (bispecific antibody, V domains shown)
VH: B1 VH with G65A, A102G
VL: B1 VL
notes: as for B1
Kd: 2.1 nM

B24: M1144 (bispecific antibody, V domains shown)
VH: B1 VH with K64A, A102G
VL: B1 VL
notes: as for B1
Kd: 2.3 nM

B25: M1143 (bispecific antibody, V domains shown)
VH: B1 VH with A63S, A102G
VL: B1 VL
notes: as for B1
Kd: 2.4 nM

B26: M1137 (bispecific antibody, V domains shown)
VH: B1 VH with T57A, A102G
VL: B1 VL
notes: as for B1
Kd: 2.2 nM

B27: M1133 (bispecific antibody, V domains shown)
VH: B1 VH with S53A, A102G
VL: B1 VL
notes: as for B1
Kd: 12.4 nM

B28: M1141 (bispecific antibody, V domains shown)
VH: B1 VH with S61A, A102G
VL: B1 VL
notes: as for B1
Kd: 1.2 nM

B29: M1123 (bispecific antibody, V domains shown)
VH: B1 VH with A102G
VL: B1 VL with S93A
notes: as for B1
Kd: 0.79 nM

B30: M1128 (bispecific antibody, V domains shown)
VH: B1 VH with A102G
VL: B1 VL with Q98A
notes: as for B1
Kd: 1.32 nM

B31: M1121 (bispecific antibody, V domains shown)
VH: B1 VH with A102G
VL: B1 VL with R90A
notes: as for B1
Kd: 6.53 nM

B32: M1119 (bispecific antibody, V domains shown)
VH: B1 VH with A102G
VL: B1 VL with A88S
notes: as for B1
Kd: 0.91 nM

B33: M1124 (bispecific antibody, V domains shown)
VH: B1 VH with A102G
VL: B1 VL with G94A
notes: as for B1
Kd: 0.65 nM

B34: M1135 (bispecific antibody, V domains shown)
VH: B1 VH with G55A, A102G
VL: B1 VL
notes: as for B1
Kd: 2.4 nM

B35: M1113 (bispecific antibody, V domains shown)
VH: B1 VH with A102G, Y106A
VL: B1 VL
notes: as for B1
Kd: 15.3 nM
